# Assay results from US20250352661A1 (MYTHIC THERAPEUTICS, published 2025).
# Positions count from the first letter of the chain named. Numbers in names are those of the source.
# T1: LRRC15 on LRRC15 positive cell lines SAOS2 and G292 (UniProt Q8TF66 22-581, limits assumed)
# T1 construct: whole, on cells
# T1 sequence (looked up): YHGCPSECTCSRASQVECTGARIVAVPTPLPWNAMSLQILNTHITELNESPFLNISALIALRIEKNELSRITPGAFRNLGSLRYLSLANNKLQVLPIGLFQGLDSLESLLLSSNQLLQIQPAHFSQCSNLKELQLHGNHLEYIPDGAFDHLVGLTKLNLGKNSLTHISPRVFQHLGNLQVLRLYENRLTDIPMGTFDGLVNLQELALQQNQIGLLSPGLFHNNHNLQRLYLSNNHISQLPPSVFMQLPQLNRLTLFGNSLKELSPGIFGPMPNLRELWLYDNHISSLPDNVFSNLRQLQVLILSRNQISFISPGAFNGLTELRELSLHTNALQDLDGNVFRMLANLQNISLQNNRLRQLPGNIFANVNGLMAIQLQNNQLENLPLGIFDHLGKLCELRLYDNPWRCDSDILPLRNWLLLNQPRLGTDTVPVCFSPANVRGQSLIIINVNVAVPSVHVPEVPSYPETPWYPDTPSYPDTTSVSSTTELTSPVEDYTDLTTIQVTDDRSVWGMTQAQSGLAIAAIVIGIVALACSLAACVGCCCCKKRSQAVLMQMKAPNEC
# T2: Human LRRC15 Protein, His Tag, Acro Biosystems (human, UniProt Q8TF66 22-538, limits assumed)
# T2 construct: not shown: His tag
# T2 sequence (looked up): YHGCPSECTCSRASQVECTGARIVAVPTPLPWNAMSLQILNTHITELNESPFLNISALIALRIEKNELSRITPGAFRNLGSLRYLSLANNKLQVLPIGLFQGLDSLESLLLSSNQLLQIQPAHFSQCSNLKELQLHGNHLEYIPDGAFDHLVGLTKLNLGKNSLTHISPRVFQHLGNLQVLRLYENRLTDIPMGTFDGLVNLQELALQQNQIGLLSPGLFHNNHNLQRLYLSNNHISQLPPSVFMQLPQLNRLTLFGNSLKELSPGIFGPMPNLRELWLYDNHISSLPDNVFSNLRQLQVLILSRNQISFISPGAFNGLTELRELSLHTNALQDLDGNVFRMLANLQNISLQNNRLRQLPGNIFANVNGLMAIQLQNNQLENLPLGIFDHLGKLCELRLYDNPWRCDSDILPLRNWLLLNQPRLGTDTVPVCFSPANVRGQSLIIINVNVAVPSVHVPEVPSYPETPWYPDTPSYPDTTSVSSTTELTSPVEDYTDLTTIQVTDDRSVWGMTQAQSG
# T3: Human LRRC15 Protein, His Tag (Acro Biosystems) (human, UniProt Q8TF66 22-538, limits assumed)
# T3 construct: Bought protein with His tag
# T3 sequence (looked up): T2 sequence (looked up)
# B1: MYT9776 (antibody, V domains shown)
# VH: EVQLVESGGGLVQPGGSLRLSCTASGFSFSGHYWICWVRQAPGKGLEWVGCIHGGSHDITYYASWAKGRFTISRDTSKNTVYLQKTSLRAEDTAVYYCASDTSYTAYGNFYFNLWGQGTLVTVSS
# VL: EIVMTQSPSPLSASVGDRVIITCQSSQSVLNNNWLAWYQQKPGKAPKLLIYDASSLASGVPSRFSGSGSGAEFTLTISSLQPDDFATYYCQGEFSCGSADCNAFGQGTKLEIK
# notes: LC EIK); also called hu24D9 HC Dev Combos, +LC FR4 EIK
# B2: MYT8094 (antibody, IgG1, V domains shown)
# VH: EVQLVESGGGLVQPGGSLRLSCTASGFSFSSSHWICWVRQAPGKGLEWVGCIYAGSIGSTYYASWAKGRFTISRDTSKNTVYLQMNSLRAEDTAVYYCARAPNDIYNYYFNLWGQGTLVTVSS
# VL: EIVMTQSPSTLSASVGDRVIITCQASENIYNYLAWYQQKPGKAPKLLIYYASTLASGVPSRFSGSGSGAEFTLTISSLQPDDFATYYCQSGYVSKSSTFGQGTKLTVL
# notes: Humanized 29F1; also called hu29F1 Parental; hu29F1
# B3: MYT9521 (antibody, V domains shown)
# VH: B2 VH
# VL: B2 VL with T53D
# notes: LC descriptor T66D; also called hu29F1 LC Asp Var
# B4: MYT9523 (antibody, V domains shown)
# VH: B2 VH
# VL: B2 VL with A55D
# notes: LC descriptor A68D; also called hu29F1 LC Asp Var
# B5: MYT9731 (antibody, V domains shown)
# VH: B2 VH
# VL: B2 VL with N28E
# notes: LC descriptor N28E; also called hu29F1 LC Glu Var
# B6: MYT9525 (antibody, V domains shown)
# VH: B2 VH
# VL: B2 VL with Q89D
# notes: also called hu29F1 VL Q89D
# B7: MYT9533 (antibody, V domains shown)
# VH: B2 VH
# VL: B2 VL with S97D
# notes: also called hu29F1 VL S97D
# B8: MYT9526 (antibody, V domains shown)
# VH: B2 VH
# VL: B2 VL with S90D
# notes: also called hu29F1 VL S90D
# B9: MYT9530 (antibody, V domains shown)
# VH: B2 VH
# VL: B2 VL with S94D
# notes: Humanized 29F1 with VL S94D; captured by anti-human Fc sensor
# B10: MYT9532 (antibody, V domains shown)
# VH: B2 VH
# VL: B2 VL with S96D
# notes: also called hu29F1 VL S96D
# B11: MYT7912 (antibody, V domains shown)
# VH: QQQLVESGGGLVKPGASLTLTCKASGFSFSGSYWICWVRQAPGKGLEWIGCINGGSLDITYYASWAKGRFTISKASSTTVTLQKTSLTAADTATYFCASHTSYTAYGNFYFNLWGPGTLVTVSS
# VL: AQVLTQTASPVSAAVGGTVTINCQSSQSVLNNNWLAWYQQKPGQPPKLLIYDASSLASGVPSRFKGSGSGTQFTLTISDLESDDAATYYCQGEFSCGSADCNAFGGGTEVVVKG
# notes: rabbit 24D9 VH D100H; chimeric, human constant regions
# B12: MYT7914 (antibody, V domains shown)
# VH: B11 VH with H100D, S102H
# VL: B11 VL
# notes: rabbit 24D9 VH S102H; chimeric, human constant regions
# B13: MYT7917 (antibody, V domains shown)
# VH: B11 VH with H100D, A105H
# VL: B11 VL
# notes: rabbit 24D9 VH A105H; chimeric, human constant regions
# B14: MYT7918 (antibody, V domains shown)
# VH: B11 VH with H100D, Y106H
# VL: B11 VL
# notes: rabbit 24D9 VH Y106H; chimeric, human constant regions
# B15: MYT7921 (antibody, V domains shown)
# VH: B11 VH with H100D, F109H
# VL: B11 VL
# notes: rabbit 24D9 VH F109H; chimeric, human constant regions
# B16: MYT7924 (antibody, V domains shown)
# VH: B11 VH with H100D, N112H
# VL: B11 VL
# notes: rabbit 24D9 VH N112H; chimeric, human constant regions
# B17: MYT7922 (antibody, V domains shown)
# VH: B11 VH with H100D, Y110H
# VL: B11 VL
# notes: rabbit 24D9 VH Y110H; chimeric, human constant regions
# B18: MYT7913 (antibody, V domains shown)
# VH: B11 VH with H100D, T101H
# VL: B11 VL
# notes: rabbit 24D9 VH T101H; chimeric, human constant regions
# B19: MYT7919 (antibody, V domains shown)
# VH: B11 VH with H100D, G107H
# VL: B11 VL
# notes: rabbit 24D9 VH G107H; chimeric, human constant regions
# B20: MYT7923 (antibody, V domains shown)
# VH: B11 VH with H100D, F111H
# VL: B11 VL
# notes: rabbit 24D9 VH F111H; chimeric, human constant regions
# B21: MYT7925 (antibody, V domains shown)
# VH: B11 VH with H100D, L113H
# VL: B11 VL
# notes: rabbit 24D9 VH L113H; chimeric, human constant regions
# B22: MYT7920 (antibody, V domains shown)
# VH: B11 VH with H100D, N108H
# VL: B11 VL
# notes: rabbit 24D9 VH N108H; chimeric, human constant regions
# B23: MYT7915 (antibody, V domains shown)
# VH: B11 VH with H100D, Y103H
# VL: B11 VL
# notes: rabbit 24D9 VH Y103H; chimeric, human constant regions
# B24: MYT7916 (antibody, V domains shown)
# VH: B11 VH with H100D, T104H
# VL: B11 VL
# notes: rabbit 24D9 VH T104H; chimeric, human constant regions
# Molecular target: T1, LRRC15 on LRRC15 positive cell lines …
# Experiment: cell binding on SAOS2 cells (LRRC15 positive), pH 7.4
# Set-up: unit not given here
row,Affinity,Binder
1,7.32,B1
2,1.71,B2
3,1.58,B3
4,0.817,B4
5,0.352,B5

# Molecular target: T2, Human LRRC15 Protein, His Tag, Acro …
# Experiment: BLI; dissociation pH 7.4 black, pH 5.4 grey [D00022 FIG. 5B]
# Method: The resulting diluted supernatants were then captured on an anti-human Fc sensor (Forte Bio). A baseline was established using 1×PBST (50 mM Potassium Phosphate Buffer+150 mM NaCl+0.05% Tween 20) pH 7.4, and the […] was associated with 50 nM of LRRC15 (Human LRRC15 Protein, His Tag, Acro Biosystems) in 1×PBST pH 7.4 for 120 sec to generate an association curve. In the dissociation phase, the antibody-antigen complex on the sensor was exposed to 1×PBST pH 7.4 or pH 5.4, for 300 sec. Association and dissociation phase curves were examined for the starting ABPC antibody (with no substitutions) and each corresponding antibody variant at pH 5.4 and pH 7.4 to inform on two criteria: a) enhanced dissociation (i.e., higher koff values) at pH 5.4 due to histidine substitution compared to the starting ABPC, (with no substitutions), and b) reduced dissociation at pH 7.4 (i.e., lower koff values) compared to pH 5.4 in the antibody variant itself and with the starting ABPC (with no substitutions).
# Briefly, CDRs in the 15G7 light chain were identified using the methods described in Example 9, and for each CDR, residues falling under either or both Kabat and IMGT CDR definitions were called as CDR residues. To generate pH-dependent sequence variants, individual amino acid residues within the light chain CDRs were systematically substituted with a histidine, one at a time (rabbit, MYT6122-6151). Desirable mutations were transferred to a humanized framework MYT8413-8487). After allowing for four days of protein expression, cell culture supernatants were collected, quantified by SDS-PAGE analysis, and the pH dependence of the variant was evaluated using biolayer interferometry (BLI) on an Octet RED 96e instrument (as described in Example 9). […]
row,binding result,Binder
1,binds,B6
2,binds,B7
3,binds,B8
4,binds,B9
5,binds,B10

# Molecular target: T3, Human LRRC15 Protein, His Tag (Acro …)
# Experiment: BLI; dissociation pH 7.4 black, pH 5.4 grey [2/2); D00014 FIG. 2B (2/2]
row,binding result,Binder
1,no binding (tested: 50 nM LRRC15),B11
2,binds,B12
3,binds,B13
4,binds,B14
5,no binding (tested: 50 nM LRRC15),B15
6,binds,B16
7,binds,B17
8,binds,B18
9,no binding (tested: 50 nM LRRC15),B19
10,binds,B20
11,binds,B21
12,no binding (tested: 50 nM LRRC15),B22
13,no binding (tested: 50 nM LRRC15),B23
14,binds,B24
